Assay results from publication PMC12098869, “An mRNA-display derived cyclic peptide scaffold reveals the substrate binding interactions of an N-terminal cysteine oxidase” (Nature Communications, 2025).
“And” between values parts separate entries of the source, which are not always exact repeats. Equal entries are not always repeated. Where two headings read alike, the source gives them in different places. Values belong to the molecule of their own block, whether it stands above or below them. Where a SMILES comes first, the peptide text is derived from it. Bridges are numbered along the chain shown (N, C = ends). Where no end group is shown, it is not given here. Side-chain parts run from the residue outwards. [ ]: non-standard residue; d: D form. Dap = NC[C@H](N)C(=O)O

Assays:
human ADO [1] = molecular target: T1, human ADO (Homo sapiens, UniProt Q96SZ5); test: ADO activity inhibition assay (RGS5_2-15 oxidation monitored by LCMS): single-dose and IC50; assay type: biochemical
T1 construct: Full-length human ADO (Uniprot ID: Q96SZ5) was cloned; made in house; host or cells: E. coli Rosetta2(DE3)
T1 sequence (Q96SZ5 1-270): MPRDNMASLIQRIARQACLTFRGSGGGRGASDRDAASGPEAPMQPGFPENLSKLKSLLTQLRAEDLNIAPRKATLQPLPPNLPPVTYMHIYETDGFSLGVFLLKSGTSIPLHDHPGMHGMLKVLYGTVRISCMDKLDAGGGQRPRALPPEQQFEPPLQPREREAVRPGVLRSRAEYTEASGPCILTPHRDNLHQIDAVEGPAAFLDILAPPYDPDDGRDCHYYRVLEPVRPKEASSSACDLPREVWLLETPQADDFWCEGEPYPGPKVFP
Method: We next tested the ability of the CPs to inhibit ADO activity. ADO activity was measured with and without 10 μM of each CP using an established stopped assay in which the oxidation of a representative substrate (RGS5_2-15; a synthetic peptide corresponding to the methionine excised N-terminus of RGS5, residues 2 to 15) was monitored by liquid chromatography coupled mass spectrometry (LCMS)[7],[35],[36].
The enzymatic activity of ADO was examined by incubating between 0–1000 μM peptide substrates with 0.1 μM ADO in a bench-top thermomixer at 37 °C for 45 seconds. Otherwise stated, the reaction buffer contained 50 mM Tris pH 7.5, 50 mM NaCl, and 5 mM TCEP. The reactions were quenched by mixing the sample 1:10 with 1% formic acid (v/v).
Peptide samples were injected onto a Chromolith® RP-18 Endcapped HPLC Columns (100–2 mm; Merck), heated to 40 °C and eluted at 0.3 ml/min using a gradient of 95% deionised water supplemented with 0.1% (v/v) formic acid to 95% acetonitrile. Oxidation was monitored by an ultra-high-performance liquid chromatography (UHPLC) mass spectrometry (MS) using ExionLC AD (Sciex) and SelexION (Sciex) mass spectrometer operated in a positive electrospray time-of-flight ( + ESI-TOF) mode. Instrument parameters, data acquisition and data processing were controlled by Analyst software (Sciex). The peptide data processing was performed using Skyline software. Turnover was quantified by comparing the areas underneath the product and substrate ions extracted from the total ion current chromatogram. All figures and parameters were generated using GraphPad Prism 9.

human ADO [2] = molecular target: T1, human ADO; test: SPR single-cycle kinetic (SCK) binding of cyclic peptides to ADO; details: 1:1 binding model, 4 °C, geometric mean of a minimum of three independent measurements (n = 3) with standard error
Source text: After six cycles, clear enrichment of several CPs was observed by next-generation sequencing. The most enriched CPs (CP1-8, numbered according to their percentage enrichment in the final selection round) were selected for subsequent analysis (Table 1). CP1, 5, 6 and 7 are related in sequence, while CP2, 3, 4, and 8 are unique compositions (Fig. 1b). These CPs were subsequently produced by solid-phase peptide synthesis (SPPS) and analysed by surface plasmon resonance (SPR) using single cycle kinetic (SCK) analysis to confirm and quantify binding to ADO. ADO could interact with each CP to varying degrees (Supplementary Fig. 4, Table 1, Fig. 1dleft).
SPR measurements were made using a Biacore T200 (Cytiva) instrument and data were analysed using the Biacore Insight Evaluation Software. Biotinylated-ADO was immobilised on a Biotin CAP chip (Cytiva) with a target density of ∼2500–3000 RU and peptide/protein substrates were injected over the chip. Experiments were conducted at 4 °C using both multi-cycle (fit using the equilibrium steady state affinity 1:1 binding model) and single-cycle kinetics mode (fit using a 1:1 binding model). A buffer comprising 20 mM HEPES pH 7.5, 500 mM NaCl, 10 mM DTT, and 0.1% (v/v) tween-20 was used as the running buffer at a flow rate of 50 μL/minute.

[3] = molecular target: 2-aminoethanethiol dioxygenase (ADO), wild type, biotinylated (pQE80L-Navi-ADO) (human); test: SPR; multi-cycle, equilibrium steady state affinity 1:1 binding model; biotinylated ADO or variant immobilised on a Biotin CAP chip (~2500-3000 RU), peptide injected; 4 °C; 20 mM HEPES pH 7.5, 500 mM NaCl, 10 mM DTT, 0.1% (v/v) tween-20; 50 μL/minute
[4] = molecular target: ADO-D206N, biotinylated (pQE80L-Navi-ADO) (human) (UniProt Q96SZ5); test: SPR; single-cycle kinetics (SCK), 1:1 binding model; biotinylated ADO or variant immobilised on a Biotin CAP chip, peptide injected at 25.6, 64, 160, 400, 1000 nM; 4 °C; 20 mM HEPES pH 7.5, 500 mM NaCl, 10 mM DTT, 0.1% (v/v) tween-20; 50 μL/minute
[5] = molecular target: T2, 2-aminoethanethiol dioxygenase (ADO), full-length human, N-terminally His-tagged and biotinylated … (human, UniProt Q96SZ5 1-270, biotin (biotinylated during expression, 0.2 mM biotin added)); test: SPR; single cycle kinetic (SCK) analysis, 1:1 binding model; biotinylated ADO immobilised on a Biotin CAP chip (~2500-3000 RU), cyclic peptides injected; 4 °C; 20 mM HEPES pH 7.5, 500 mM NaCl, 10 mM DTT, 0.1% tween-20; 50 μL/minute; details: both partners purified
T2 construct: 2-aminoethanethiol dioxygenase (ADO), human, UniProt Q96SZ5, full length; Construct used for RaPID screening and all SPR experiments; No tag cleavage step is described in its purification; also called wild type ADO; biotinylated ADO; source: E. coli Rosetta2(DE3), purified (Ni-NTA, SEC); not shown: biotinylation tag (from the vector pQE80L-Navi), N-terminal, kept
T2 sequence (looked up): T1 sequence (Q96SZ5 1-270)

[6] = molecular target: T3, 2-aminoethanethiol dioxygenase (ADO), full-length human, N-terminally His-tagged and biotinylated … (human, UniProt Q96SZ5 1-270, biotin (biotinylated during expression, 0.2 mM biotin added)); test: SPR; single-cycle kinetics (1:1 binding model); biotinylated ADO immobilised on a Biotin CAP chip (~2500-3000 RU), cyclic peptide injected; Biacore T200, 4 °C; 20 mM HEPES pH 7.5, 500 mM NaCl, 10 mM DTT, 0.1% tween-20; 50 µL/minute; each cell is one of three independent measurements; details: both partners purified
T3 construct: 2-aminoethanethiol dioxygenase (ADO), human, UniProt Q96SZ5, full length; Immobilised through its biotin on a Biotin CAP chip for SPR; also called wild type ADO; Biotinylated-ADO; source: E. coli Rosetta2(DE3), purified (Ni-NTA, SEC); not shown: biotinylation tag (from the vector pQE80L-Navi), N-terminal, kept
T3 sequence (looked up): T1 sequence (Q96SZ5 1-270)
Method in brief: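 Biotinylated full-length human ADO was made in E. coli with a His tag, then purified by nickel affinity and gel filtration. It was captured on a Biotin CAP chip at about 2500–3000 RU in a Biacore T200, and cyclic peptides were flowed over it. The run was at 4 °C in HEPES pH 7.5 buffer with 500 mM NaCl, DTT and tween-20, at 50 µL/minute. Kd came from a 1:1 binding fit of single-cycle kinetic sensorgrams, with three independent measurements.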

[7] = molecular target: T3, 2-aminoethanethiol dioxygenase (ADO), …; test: SPR; single-cycle kinetics (1:1 binding model); biotinylated ADO immobilised on a Biotin CAP chip (~2500-3000 RU), cyclic peptide injected; Biacore T200, 4 °C; 20 mM HEPES pH 7.5, 500 mM NaCl, 10 mM DTT, 0.1% tween-20; 50 µL/minute; each cell is one of three independent measurements; details: both partners purified; remark: listed apart in the source
[8] = RGS5_2-15 substrate, LCMS, 37 °C, average of three independent experiments (n = 3), standard error, read-out: IC50

- IC50 (human ADO [1]; as given in the legend of Fig. 2c (concentration of CP added), read-out: half-maximal inhibitory concentration (IC50)): 200 nM
Molecule: CC[C@H](C)[C@@H]1NC(=O)[C@H](Cc2ccc(O)cc2)NC(=O)CSC[C@@H](C(N)=O)NC(=O)[C@H](CCC(N)=O)NC(=O)[C@H](CCCNC(=N)N)NC(=O)[C@H](Cc2c[nH]cn2)NC(=O)[C@H](CO)NC(=O)CNC(=O)[C@H](CC(C)C)NC(=O)[C@H](Cc2c[nH]c3ccccc23)NC(=O)[C@H](CO)NC(=O)[C@H]([C@@H](C)O)NC(=O)[C@H](CCCCN)NC(=O)[C@H](C(C)C)NC1=O [CP6-F6S] ({CH2CO}-YIVKTSWLGSHRQC-NH2; thioether N-14)

- IC50 (human ADO [1]; [8]): 9920 ± 290 nM
- KD (human ADO [2]): non-specific binding
Molecule: CC(C)C[C@@H]1NC(=O)[C@H](Cc2ccc(O)cc2)NC(=O)[C@H](CC(C)C)NC(=O)[C@H]([C@@H](C)O)NC(=O)[C@H](C(C)C)NC(=O)[C@H](CC(C)C)NC(=O)[C@H](CC(C)C)NC(=O)[C@H](Cc2ccc(O)cc2)NC(=O)CSC[C@@H](C(N)=O)NC(=O)[C@H](CO)NC(=O)[C@H](CCCNC(=N)N)NC(=O)[C@H](Cc2c[nH]cn2)NC(=O)[C@H]([C@@H](C)O)NC(=O)CNC1=O [CP7] ({CH2CO}-YLLVTLYLGTHRSC-NH2; thioether N-14)

- IC50 (human ADO [1]; [8]): > 50000 nM
- Kd (human ADO [2]): 1300 ± 140 nM
Molecule: CC[C@H](C)[C@@H]1NC(=O)[C@H]([C@@H](C)O)NC(=O)CNC(=O)[C@H](CC(C)C)NC(=O)[C@H](C(C)C)NC(=O)[C@H](Cc2ccc(O)cc2)NC(=O)[C@H](Cc2ccc(O)cc2)NC(=O)[C@H](Cc2ccc(O)cc2)NC(=O)CSC[C@@H](C(N)=O)NC(=O)[C@H](Cc2ccccc2)NC(=O)[C@H](CCCNC(=N)N)NC(=O)[C@H](Cc2ccc(O)cc2)NC(=O)[C@H](CCCNC(=N)N)NC(=O)[C@H](CCCCN)NC(=O)[C@H](C(C)C)NC(=O)[C@H](CC(C)C)NC1=O [CP4] ({CH2CO}-YYYVLGTILVKRYRFC-NH2; thioether N-16)

- Kd [5]: 150 nM
B1: CP6-L8d-Gly-Ser (peptide)
chain: {CH2CO}-YIVKTFW[Dap]([Gly-Ser])GSHRQC
modifications: thioether N-14

Further lines, the molecule ahead of its results:

Molecule: IL32_(2-15), synthetic peptide corresponding to the methionine excised N-terminus of IL32, residues 2-15 (from UniProt P24001 2-15)
- Kd [3]: 460 nM
- Kd [4]: 70 nM

Molecule: RGS5_(2-15), synthetic peptide corresponding to the methionine excised N-terminus of RGS5, residues 2 to 15 (from UniProt O15539 2-15)
- Kd [3]: 640 nM
- Kd [4]: 150 nM

B2: CP6-L8d-Phe-Ser (peptide)
chain: {CH2CO}-YIVKTFW[Dap]([Phe-Ser])GSHRQC
modifications: thioether N-14
- Kd [5]: 79 nM

B3: Cyclic peptide CP6 (peptide)
peptide: {CH2CO}-YIVKTFWLGSHRQC-NH2
modifications: thioether N-14
SMILES: CC[C@H](C)[C@@H]1NC(=O)[C@H](Cc2ccc(O)cc2)NC(=O)CSC[C@@H](C(N)=O)NC(=O)[C@H](CCC(N)=O)NC(=O)[C@H](CCCNC(=N)N)NC(=O)[C@H](Cc2c[nH]cn2)NC(=O)[C@H](CO)NC(=O)CNC(=O)[C@H](CC(C)C)NC(=O)[C@H](Cc2c[nH]c3ccccc23)NC(=O)[C@H](Cc2ccccc2)NC(=O)[C@H]([C@@H](C)O)NC(=O)[C@H](CCCCN)NC(=O)[C@H](C(C)C)NC1=O
notes: selected by RaPID mRNA display against ADO; source: synthetic peptide (SPPS)
- Kd [6]: 50.9 nM and 50.4 nM and 50.6 nM
- Kd [7]: 28.9 nM and 28.6 nM and 31.2 nM

B4: CP6-K4A (peptide)
peptide: {CH2CO}-YIVATFWLGSHRQC
modifications: thioether N-14
notes: the substitution K4A is to be applied to them; Single amino acid substituent of CP6; source: synthetic peptide
- Kd [7]: 429 nM and 397 nM and 428 nM

B5: CP6-L8d-Lys-Ser (peptide)
chain: {CH2CO}-YIVKTFW[Dap]([Lys-Ser])GSHRQC
modifications: thioether N-14
- Kd [5]: 490 nM
